Results on two substances are retold here after article PMC7337904.

What is called stoichiometry N is a count of units in the complex or per binding partner.

Series [1] has as its target AvaII restriction endonuclease (wild type) (UniProt Q8YYB7). The series can be described thus: EMSA. The conditions noted are these: EMSA: 20 mM Tris-acetate pH 7.9, 50 mM K-acetate, 10 mM CaCl2 (replacing Mg-acetate), 1 mg/ml BSA, 37 C 30 min; 10 pmol duplex; 8% native PAGE in TBE or TB + …. For orientation: A gel shift assay detects complexes by their altered migration in electrophoresis.

Series [2] concerns the target AvaII restriction endonuclease (Anabaena variabilis). The series can be described thus: crystal structure; three crystal forms: AvaII alone, with partially cleaved dsDNA, and with RNA/DNA heteroduplex; protein in 50 mM Tris-HCl pH 7.4, 0.2 M NaCl, 5 mM CaCl2, 1 mM DTT, 5% glycerol; sitting drops at 18°C.

For the substance “41-nt RNA/DNA heteroduplex, GGACC in RNA or DNA strand”, the binding signal (fold weaker than dsDNA) in series [1] amounted to 100.

The substance AvaII restriction endonuclease (enzyme) displayed a stoichiometry N in series [2] of 2.
